From patent US20240343823A1 (Ablynx, published 2024)
Read-outs that look alike come from different tables or passages of the source.

Columns and labels:
Assay in all cases: cell-based or functional assay
[1] = target: T1, human GPC3 on tumor cell lines (HepG2, Huh-7, NCI-H661, MKN-45, NCI-H23, BxPC-3, NCI-H292) (human, UniProt P51654 25-554)
[2] = target: T1, human GPC3 on tumor cell lines (HepG2, …); remark: listed apart in the source
[3] = target: T1, human GPC3 on tumor cell lines (HepG2, …); remark: listed apart in the source
[4] = target: T1, human GPC3 on tumor cell lines (HepG2, …); remark: listed apart in the source

B1: A022600133 (other)
chain: DVQLVESGGGVVQPGGSLRLSCVASGYVHKINFYGWYRQAPGKEREKVAHISIGDQTDYADSAKGRFTISRDESKNTVYLQMNSLRPEDTALYYCRALSRIWPYDYWGQGTLVTVSSGGGGSEVQLVESGGGLVQPGGSLRLSCVASGSIFRSVFSSSTMEWYRQPPGKKRELVARIAPGDGTNYGALYADSVKGRFTISRDDAKKTVDLQMNSLKPEDTGVYFCASGVAWGQGTLVTVSSGGGGSGGGGSGGGGSGGGGSGGGGSGGGGSGGGGSEVQLVESGGGLVQPGGSLRLSCVASGFTFSSFAMTWVRRPPGKGLEWVATITNGGVTSYRDSVKGRFTISRDNAKNTLYLEMTSLNPEDTAVYICANARRTGPRAPTDIGSYRGQGTLVTVSSGGGGSGGGGSGGGGSGGGGSGGGGSGGGGSGGGGSEVQLVESGGGVVQPGGSLRLSCAASGFTFRSFGMSWVRQAPGKGPEWVSSISGSGSDTLYADSVKGRFTISRDNSKNTLYLQMNSLRPEDTALYYCTIGGSLSRSSQGTLVTVSSA
[1]
  IC50 (M), Incucyte human TDC HepG2-Nuclight green assay: 4.08e-10 M
  Max % Killing, Incucyte human TDC HepG2-Nuclight green assay: 92%

B2: A022600131 (other)
chain: DVQLVESGGGVVQPGGSLRLSCVASGYVHKINFYGWYRQAPGKEREKVAHISIGDQTDYADSAKGRFTISRDESKNTVYLQMNSLRPEDTALYYCRALSRIWPYDYWGQGTLVTVSSGGGGSEVQLVESGGGLVQPGGSLRLSCVASGFTFSSFAMTWVRRPPGKGLEWVATITNGGVTSYRDSVKGRFTISRDNAKNTLYLEMTSLNPEDTAVYICANARRTGPRAPTDIGSYRGQGTLVTVSSGGGGSGGGGSGGGGSGGGGSEVQLVESGGGLVQPGGSLRLSCVASGSIFRSVFSSSTMEWYRQPPGKKRELVARIAPGDGTNYGALYADSVKGRFTISRDDAKKTVDLQMNSLKPEDTGVYFCASGVAWGQGTLVTVSSGGGGSGGGGSGGGGSGGGGSGGGGSGGGGSGGGGSEVQLVESGGGVVQPGGSLRLSCAASGFTFRSFGMSWVRQAPGKGPEWVSSISGSGSDTLYADSVKGRFTISRDNSKNTLYLQMNSLRPEDTALYYCTIGGSLSRSSQGTLVTVSSA
[1]
  IC50 (M), Incucyte human TDC HepG2-Nuclight green assay: 4.44e-10 M
  Max % Killing, Incucyte human TDC HepG2-Nuclight green assay: 94%

B3: A022600122 (other)
chain: DVQLVESGGGVVQPGGSLRLSCVASGYVHKINFYGWYRQAPGKEREKVAHISIGDQTDYADSAKGRFTISRDESKNTVYLQMNSLRPEDTALYYCRALSRIWPYDYWGQGTLVTVSSGGGGSEVQLVESGGGLVQPGGSLRLSCVASGFTFSSFAMTWVRRPPGKGLEWVATITNGGVTSYRDSVKGRFTISRDNAKNTLYLEMTSLNPEDTAVYICANARRTGPRAPTDIGSYRGQGTLVTVSSGGGGSGGGGSGGGGSGGGGSGGGGSGGGGSGGGGSEVQLVESGGGLVQPGGSLRLSCVASGSIFRSVFSSSTMEWYRQPPGKKRELVARIAPGDGTNYGALYADSVKGRFTISRDDAKKTVDLQMNSLKPEDTGVYFCASGVAWGQGTLVTVSSGGGGSGGGGSGGGGSGGGGSGGGGSGGGGSGGGGSEVQLVESGGGVVQPGGSLRLSCAASGFTFRSFGMSWVRQAPGKGPEWVSSISGSGSDTLYADSVKGRFTISRDNSKNTLYLQMNSLRPEDTALYYCTIGGSLSRSSQGTLVTVSSA
[2]
  HepG2 on Incucyte IC50: 530 pM
  HepG2 on Incucyte Max % killing: 93%
  Huh7 on xCELLigence IC50: 261 pM
  Huh7 on xCELLigence Max % killing: 101%
[1]
  IC50 (M), Incucyte human TDC HepG2-Nuclight green assay: 4.45e-10 M
  Max % Killing, Incucyte human TDC HepG2-Nuclight green assay: 92%

B4: A022600134 (other)
chain: DVQLVESGGGVVQPGGSLRLSCVASGYVHKINFYGWYRQAPGKEREKVAHISIGDQTDYADSAKGRFTISRDESKNTVYLQMNSLRPEDTALYYCRALSRIWPYDYWGQGTLVTVSSGGGGSEVQLVESGGGLVQPGGSLRLSCVASGSIFRSVFSSSTMEWYRQPPGKKRELVARIAPGDGTNYGALYADSVKGRFTISRDDAKKTVDLQMNSLKPEDTGVYFCASGVAWGQGTLVTVSSGGGGSGGGGSGGGGSGGGGSEVQLVESGGGLVQPGGSLRLSCVASGFTFSSFAMTWVRRPPGKGLEWVATITNGGVTSYRDSVKGRFTISRDNAKNTLYLEMTSLNPEDTAVYICANARRTGPRAPTDIGSYRGQGTLVTVSSGGGGSGGGGSGGGGSGGGGSGGGGSGGGGSGGGGSEVQLVESGGGVVQPGGSLRLSCAASGFTFRSFGMSWVRQAPGKGPEWVSSISGSGSDTLYADSVKGRFTISRDNSKNTLYLQMNSLRPEDTALYYCTIGGSLSRSSQGTLVTVSSA
[1]
  IC50 (M), Incucyte human TDC HepG2-Nuclight green assay: 5.28e-10 M
  Max % Killing, Incucyte human TDC HepG2-Nuclight green assay: 92%

B5: A022600174 (other)
chain: DVQLVESGGGVVQPGGSLRLSCVASGYVHKINFYGWYRQAPGKEREKVAHISIGDQTDYADSAKGRFTISRDESKNTVYLQMNSLRPEDTAAYYCRALSRIWPYDYWGQGTLVTVSSGGGGSEVQLVESGGGLVQPGGSLRLSCVASGFTFSSFAMTWVRRPPGKGLEWVATITNGGVTSYRDSVKGRFTISRDNAKNTLYLEMTSLNPEDTAVYICANARRTGPRAPTDIGSYRGQGTLVTVSSGGGGSGGGSEVQLVESGGGLVQPGGSLRLSCVASGSIFRSVFSSSTMEWYRQPPGKKRELVARIAPGDGTNYGALYADSVKGRFTISRDDAKKTVDLQMNSLKPEDTGVYFCASGVAWGQGTLVTVSSGGGGSGGGSEVQLVESGGGVVQPGGSLRLSCAASGFTFRSFGMSWVRQAPGKGPEWVSSISGSGSDTLYADSVKGRFTISRDNSKNTLYLQMNSLRPEDTALYYCTIGGSLSRSSQGTLVTVSSA
[3]
  HepG2 on Incucyte IC50: 673 pM
  HepG2 on Incucyte Max % killing: 96%
  Huh7 on xCELLigence IC50: 62.6 pM
  Huh7 on xCELLigence Max % killing: 99%
[4]
  HepG2 on Incucyte IC50: 673 pM
  HepG2 on Incucyte Max % killing: 96%
  Huh7 on xCELLigence IC50: 62.6 pM
  Huh7 on xCELLigence Max % killing: 99%

B6: A022600135 (other)
chain: DVQLVESGGGVVQPGGSLRLSCVASGYVHKINFYGWYRQAPGKEREKVAHISIGDQTDYADSAKGRFTISRDESKNTVYLQMNSLRPEDTALYYCRALSRIWPYDYWGQGTLVTVSSGGGGSEVQLVESGGGLVQPGGSLRLSCVASGSIFRSVFSSSTMEWYRQPPGKKRELVARIAPGDGTNYGALYADSVKGRFTISRDDAKKTVDLQMNSLKPEDTGVYFCASGVAWGQGTLVTVSSGGGGSGGGSEVQLVESGGGLVQPGGSLRLSCVASGFTFSSFAMTWVRRPPGKGLEWVATITNGGVTSYRDSVKGRFTISRDNAKNTLYLEMTSLNPEDTAVYICANARRTGPRAPTDIGSYRGQGTLVTVSSGGGGSGGGGSGGGGSGGGGSGGGGSGGGGSGGGGSEVQLVESGGGVVQPGGSLRLSCAASGFTFRSFGMSWVRQAPGKGPEWVSSISGSGSDTLYADSVKGRFTISRDNSKNTLYLQMNSLRPEDTALYYCTIGGSLSRSSQGTLVTVSSA
[1]
  IC50 (M), Incucyte human TDC HepG2-Nuclight green assay: 6.11e-10 M
  Max % Killing, Incucyte human TDC HepG2-Nuclight green assay: 91%
